{"source": "the RNAGym collection of RNA variant scans (doi:10.1093/molbev/msab373)", "parents": {"B1": {"name": "Azoarcus group I ribozyme (parent)", "chain": "GUGCCUUGCGCCGGGAAACCACGCAAGGGAUGGUGUCAAAUUCGGCGAAACCUAAGCGCCCGCCCGGGCGUAUGGCAACGCCGAGCCAAGCUUCGGCGCCUGCGCCGAUGAAGGUGUAGAGACUAGACGGCACCCACCUAAGGCAAACGCUAUGGUGAAGGCAUAGUCCAGGGAGUGGCGAAAGUCACACAAACCGG"}}, "data": [{"variants_of": "B1", "experiment": "reverse-splicing fitness (ratio to wild type); higher = more active; in vitro selection; Mg2+ level not given", "how_it_was_run": "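An in vitro group I ribozyme library with randomized positions was T7-transcribed and gel-purified. In triplicate, 10 pmol RNA in EPPS pH 7.5 was reacted with 50 pmoles of a 30-nt RNA substrate for 1 h at 37 °C across several added MgCl2 levels (1–48 mM), then stopped with EDTA. Products were reverse transcribed from a substrate-complementary primer, PCR-amplified and sequenced (HiSeq 4000). Fitness is a variant's read proportion after selection over that before, normalised to wild type.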", "values": [{"variant": "GUGCCUUGCGCCGGGAAACCACGCAAGGGAUGGUGUCAAAUUCGGCGAAACCUAAGCGCCCGCCCGGGCGUAUGGCAACGCAGAGCCAAGCUUCGGCGCCUGCGCCGAUGGAGGUGUAGUGACUAGACGGCACCCACCUAAGGCGAACGCUAUGGUGAAGGCAUAGUCGAGGGAGGGGCGAAAGUCACACAAACCGG", "note": "[C82A A111G A120U A145G C169G U176G]", "reverse-splicing fitness": 0.00191}, {"variant": "GUGCCUUGCGCCGGGAAACCACGCAAGGGAUGGUGUCAAAUUCGGCGAAACCUAAGCGCCCGCCCGGGCGUAUGGCAACGCAGAGCCAAGCUUCGGCGCCUGCGCCGAUGGAGGUGUAGUGACUAGACGGCACCCACCUAAGGCUAACGAUAUGGUGAAGGCAUAGUCAAGGGAGGGGCGAAAGUCACACAAACCGG", "note": "[C82A A111G A120U A145U C150A C169A U176G]", "reverse-splicing fitness": 0.00187}, {"variant": "GUGCCUUGCGCCGGGAAACCACGCAAGGGAUGGUGUCAAAUUCGGCGAAACCUAAGCGCCCGCCCGGGCGUAUGGCAACGCAGAGCCAAGCUUCGGCGCCUGCGCCGAUGGAGGUGUAGUGACUAGACGGCACCCACCUAAGGCUAACGAUAUGGUGAAGGCAUAGUCAAGGGAGAGGCGAAAGUCACACAAACCGG", "note": "[C82A A111G A120U A145U C150A C169A U176A]", "reverse-splicing fitness": 0.00224}, {"variant": "GUGCCUUGCGCCGGGAAACCACGCAAGGGAUGGUGUCAAAUUCGGCGAAACCUAAGCGCCCGCCCGGGCGUAUGGCAACGCAGAGCCAAGCUUCGGCGCCUGCGCCGAUGGAGGUGUAGUGACUAGACGGCACCCACCUAAGGCUAACGAUAUGGUGAAGGCAUAGUCAAGGGAGCGGCGAAAGUCACACAAACCGG", "note": "[C82A A111G A120U A145U C150A C169A U176C]", "reverse-splicing fitness": 0.00213}, {"variant": "GUGCCUUGCGCCGGGAAACCACGCAAGGGAUGGUGUCAAAUUCGGCGAAACCUAAGCGCCCGCCCGGGCGUAUGGCAACGCAGAGCCAAGCUUCGGCGCCUGCGCCGAUGGAGGUGUAGUGACUAGACGGCACCCACCUAAGGCUAACGAUAUGGUGAAGGCAUAGUCGAGGGAGCGGCGAAAGUCACACAAACCGG", "note": "[C82A A111G A120U A145U C150A C169G U176C]", "reverse-splicing fitness": 0.00264}, {"variant": "GUGCCUUGCGCCGGGAAACCACGCAAGGGAUGGUGUCAAAUUCGGCGAAACCUAAGCGCCCGCCCGGGCGUAUGGCAACGCAGAGCCAAGCUUCGGCGCCUGCGCCGAUGGAGGUGUAGUGACUAGACGGCACCCACCUAAGGCUAACGAUAUGGUGAAGGCAUAGUCGAGGGAGGGGCGAAAGUCACACAAACCGG", "note": "[C82A A111G A120U A145U C150A C169G U176G]", "reverse-splicing fitness": 0.0019}, {"variant": "GUGCCUUGCGCCGGGAAACCACGCAAGGGAUGGUGUCAAAUUCGGCGAAACCUAAGCGCCCGCCCGGGCGUAUGGCAACGCAGAGCCAAGCUUCGGCGCCUGCGCCGAUGGAGGUGUAGUGACUAGACGGCACCCACCUAAGGCUAACGAUAUGGUGAAGGCAUAGUCGAGGGAGAGGCGAAAGUCACACAAACCGG", "note": "[C82A A111G A120U A145U C150A C169G U176A]", "reverse-splicing fitness": 0.00301}, {"variant": "GUGCCUUGCGCCGGGAAACCACGCAAGGGAUGGUGUCAAAUUCGGCGAAACCUAAGCGCCCGCCCGGGCGUAUGGCAACGCAGAGCCAAGCUUCGGCGCCUGCGCCGAUGGAGGUGUAGUGACUAGACGGCACCCACCUAAGGCUAACGCUAUGGUGAAGGCAUAGUCCAGGGAGUGGCGAAAGUCACACAAACCGG", "note": "[C82A A111G A120U A145U]", "reverse-splicing fitness": 0.0342}, {"variant": "GUGCCUUGCGCCGGGAAACCACGCAAGGGAUGGUGUCAAAUUCGGCGAAACCUAAGCGCCCGCCCGGGCGUAUGGCAACGCAGAGCCAAGCUUCGGCGCCUGCGCCGAUGGAGGUGUAGUGACUAGACGGCACCCACCUAAGGCUAACGAUAUGGUGAAGGCAUAGUCCAGGGAGCGGCGAAAGUCACACAAACCGG", "note": "[C82A A111G A120U A145U C150A U176C]", "reverse-splicing fitness": 0.00602}, {"variant": "GUGCCUUGCGCCGGGAAACCACGCAAGGGAUGGUGUCAAAUUCGGCGAAACCUAAGCGCCCGCCCGGGCGUAUGGCAACGCAGAGCCAAGCUUCGGCGCCUGCGCCGAUGGAGGUGUAGUGACUAGACGGCACCCACCUAAGGCUAACGAUAUGGUGAAGGCAUAGUCCAGGGAGAGGCGAAAGUCACACAAACCGG", "note": "[C82A A111G A120U A145U C150A U176A]", "reverse-splicing fitness": 0.00478}, {"variant": "GUGCCUUGCGCCGGGAAACCACGCAAGGGAUGGUGUCAAAUUCGGCGAAACCUAAGCGCCCGCCCGGGCGUAUGGCAACGCAGAGCCAAGCUUCGGCGCCUGCGCCGAUGGAGGUGUAGUGACUAGACGGCACCCACCUAAGGCGAACGCUAUGGUGAAGGCAUAGUCGAGGGAGUGGCGAAAGUCACACAAACCGG", "note": "[C82A A111G A120U A145G C169G]", "reverse-splicing fitness": 0.00402}, {"variant": "GUGCCUUGCGCCGGGAAACCACGCAAGGGAUGGUGUCAAAUUCGGCGAAACCUAAGCGCCCGCCCGGGCGUAUGGCAACGCAGAGCCAAGCUUCGGCGCCUGCGCCGAUGGAGGUGUAGUGACUAGACGGCACCCACCUAAGGCGAACGCUAUGGUGAAGGCAUAGUCUAGGGAGUGGCGAAAGUCACACAAACCGG", "note": "[C82A A111G A120U A145G C169U]", "reverse-splicing fitness": 0.00421}, {"variant": "GUGCCUUGCGCCGGGAAACCACGCAAGGGAUGGUGUCAAAUUCGGCGAAACCUAAGCGCCCGCCCGGGCGUAUGGCAACGCAGAGCCAAGCUUCGGCGCCUGCGCCGAUGGAGGUGUAGUGACUAGACGGCACCCACCUAAGGCGAACGCUAUGGUGAAGGCAUAGUCAAGGGAGAGGCGAAAGUCACACAAACCGG", "note": "[C82A A111G A120U A145G C169A U176A]", "reverse-splicing fitness": 0.0033}, {"variant": "GUGCCUUGCGCCGGGAAACCACGCAAGGGAUGGUGUCAAAUUCGGCGAAACCUAAGCGCCCGCCCGGGCGUAUGGCAACGCAGAGCCAAGCUUCGGCGCCUGCGCCGAUGGAGGUGUAGUGACUAGACGGCACCCACCUAAGGCGAACGCUAUGGUGAAGGCAUAGUCAAGGGAGGGGCGAAAGUCACACAAACCGG", "note": "[C82A A111G A120U A145G C169A U176G]", "reverse-splicing fitness": 0.002}, {"variant": "GUGCCUUGCGCCGGGAAACCACGCAAGGGAUGGUGUCAAAUUCGGCGAAACCUAAGCGCCCGCCCGGGCGUAUGGCAACGCAGAGCCAAGCUUCGGCGCCUGCGCCGAUGGAGGUGUAGUGACUAGACGGCACCCACCUAAGGCGAACGCUAUGGUGAAGGCAUAGUCAAGGGAGCGGCGAAAGUCACACAAACCGG", "note": "[C82A A111G A120U A145G C169A U176C]", "reverse-splicing fitness": 0.00333}]}]}
